This note sets out measurements from paper doi:10.1101/2022.04.05.486672.

For test [1], the target named is SIRK1-ECD together with co-receptor QSK1-ECD (about 20 nM each) (Arabidopsis). Put plainly: MST.
In test [2] the target is SIRK1-ECD-HA-StrepII (extracellular domain of SIRK1) (Arabidopsis). Briefly: MST.

With VSGNVAARKGKQQTSSGKGGGTN [PEP7 (Elicitor Peptide 7), synthetic, untagged], the dissociation constant Kd in test [1] is 57 nM; in test [2] it was 1440 nM.

What is called Kd is the constant that tells how readily two partners part at equilibrium. Higher therefore signals weaker binding.
